# Source: the Human Domainome abundance scans (Beltran et al. 2025)
# ± gives the uncertainty stated by the source.
# B1: SWI/SNF complex subunit SMARCC1, residues 620 to 663; numbered along this chain, Q92922 (parent)
# chain: GREWTEQETLLLLEALEMYKDDWNKVSEHVGSRTQDECILHFLR
# Variants of: B1
# Assay: abundance fitness (aPCA) (normalised: wild type 0, dead -1); higher = more abundant; growth selection in yeast, the domain comes from the species named
# Conditions: Homo sapiens
row,Variant,abundance fitness
1,W23E,-0.577 ± 0.15
2,W23A,-0.712 ± 0.12
3,W23I,-0.255 ± 0.23
4,W23P,-0.535 ± 0.11
5,W23K,-0.503 ± 0.44
6,W23F,-0.186 ± 0.14
7,W23G,-0.631 ± 0.077
8,W23N,-0.579 ± 0.13
9,W23D,-0.374 ± 0.15
10,W23M,-0.32 ± 0.11
11,W23T,-0.786 ± 0.12
12,W23L,-0.528 ± 0.086
13,W23H,-0.696 ± 0.2
14,W23C,-0.48 ± 0.089
15,W23V,-0.783 ± 0.13
16,M18I,-0.264 ± 0.23
17,M18N,-0.018 ± 0.25
18,M18L,0.063 ± 0.067
19,M18W,-0.2 ± 0.11
20,M18S,-0.168 ± 0.076
21,M18R,0.142 ± 0.069
22,M18G,-0.24 ± 0.074
23,M18D,-0.097 ± 0.25
24,M18H,-0.04 ± 0.084

row,Variant,abundance fitness
1,M18Q,0.056 ± 0.077
2,M18C,-0.158 ± 0.14
3,M18E,-0.135 ± 0.11
4,M18T,0.1 ± 0.17
5,M18Y,-0.129 ± 0.13
6,M18P,-0.583 ± 0.41
7,M18F,-0.1 ± 0.094
8,M18V,-0.002 ± 0.067
9,M18K,-0.076 ± 0.089
10,M18A,0.115 ± 0.069
11,Y19L,-0.776 ± 0.19
12,Y19P,-0.952 ± 0.19
13,Y19Q,-0.423 ± 0.13
14,Y19T,-0.298 ± 0.087
15,Y19H,0.062 ± 0.14
16,Y19R,-0.55 ± 0.086
17,Y19I,-0.693 ± 0.15
18,Y19V,-0.69 ± 0.18
19,Y19W,-0.081 ± 0.075
20,Y19E,-0.216 ± 0.13
21,Y19S,-0.362 ± 0.097
22,Y19C,0.09 ± 0.099
23,Y19D,-0.218 ± 0.15
24,Y19G,-0.108 ± 0.059

row,Variant,abundance fitness
1,Y19K,-0.263 ± 0.14
2,Y19M,-0.62 ± 0.16
3,E14V,-0.552 ± 0.17
4,E14T,-0.18 ± 0.091
5,E14Y,-0.428 ± 0.2
6,E14R,-0.28 ± 0.12
7,E14P,-1.15 ± 0.48
8,E14L,-0.549 ± 0.1
9,E14Q,-0.045 ± 0.1
10,E14N,-0.164 ± 0.12
11,E14M,-0.267 ± 0.096
12,E14S,-0.27 ± 0.068
13,D21A,-0.066 ± 0.068
14,D21V,-0.419 ± 0.094
15,D21I,-0.601 ± 0.34
16,D21S,-0.078 ± 0.088
17,D21P,0.019 ± 0.13
18,D21G,-0.046 ± 0.088
19,D21H,0.102 ± 0.087
20,D21R,0.268 ± 0.059
21,D21Q,0.067 ± 0.08
22,D21T,-0.17 ± 0.14
23,D21N,0.227 ± 0.16
24,D21E,0.225 ± 0.071

row,Variant,abundance fitness
1,D21W,-0.578 ± 0.23
2,D21M,-0.363 ± 0.17
3,D21K,0.294 ± 0.076
4,A15D,-0.562 ± 0.44
5,A15R,-0.82 ± 0.14
6,A15P,-1.19 ± 0.34
7,A15E,-0.716 ± 0.16
8,A15G,0.03 ± 0.056
9,A15S,-0.043 ± 0.058
10,A15H,-0.707 ± 0.18
11,A15F,-0.616 ± 0.29
12,A15V,-0.886 ± 0.11
13,A15K,-0.925 ± 0.24
14,A15Y,-0.746 ± 0.24
15,A15Q,-0.72 ± 0.34
16,A15L,-0.926 ± 0.13
17,D22A,-0.447 ± 0.096
18,D22L,-0.44 ± 0.12
19,D22C,-0.122 ± 0.098
20,D22V,-0.526 ± 0.14
21,D22Q,-0.112 ± 0.073
22,D22H,-0.264 ± 0.14
23,D22Y,-0.714 ± 0.16
24,D22E,-0.017 ± 0.1

row,Variant,abundance fitness
1,D22I,-0.733 ± 0.17
2,D22S,0.04 ± 0.1
3,D22T,-0.581 ± 0.33
4,D22G,-0.419 ± 0.097
5,L16V,0.224 ± 0.058
6,L16Y,0.334 ± 0.063
7,L16W,0.024 ± 0.082
8,L16C,0.197 ± 0.057
9,L16N,0.136 ± 0.072
10,L16F,-0.231 ± 0.083
11,L16M,0.235 ± 0.08
12,L16A,0.16 ± 0.051
13,L16Q,0.428 ± 0.075
14,L16H,0.303 ± 0.073
15,L16S,0.094 ± 0.063
16,L16R,0.469 ± 0.052
17,L16T,0.316 ± 0.058
18,L16E,0.274 ± 0.073
19,L16I,0.079 ± 0.091
20,L16G,-0.05 ± 0.069
21,L16P,-0.77 ± 0.11
22,L16D,-0.237 ± 0.093
23,N24K,0.155 ± 0.084
24,N24T,-0.029 ± 0.069

row,Variant,abundance fitness
1,N24I,-0.13 ± 0.16
2,N24L,0.013 ± 0.056
3,N24P,0.045 ± 0.072
4,N24S,0.119 ± 0.052
5,N24C,-0.001 ± 0.077
6,N24R,-0.032 ± 0.057
7,N24G,0.075 ± 0.061
8,N24Q,0.173 ± 0.11
9,N24D,0.024 ± 0.096
10,N24W,-0.168 ± 0.079
11,N24H,0.006 ± 0.078
12,N24E,0.042 ± 0.096
13,N24A,0.027 ± 0.062
14,N24M,0.065 ± 0.084
15,E17Q,-0.033 ± 0.11
16,E17W,-0.716 ± 0.14
17,E17T,-0.175 ± 0.14
18,E17K,0.139 ± 0.14
19,E17R,-0.007 ± 0.058
20,E17F,-0.548 ± 0.33
21,E17D,0.054 ± 0.092
22,E17C,-0.763 ± 0.19
23,E17A,-0.087 ± 0.072
24,E17H,-0.357 ± 0.18

row,Variant,abundance fitness
1,E17G,-0.213 ± 0.064
2,E17V,-0.503 ± 0.1
3,E17M,-0.722 ± 0.2
4,E17S,-0.308 ± 0.082
5,E17I,-0.553 ± 0.2
6,K20P,0.058 ± 0.064
7,K20C,-0.375 ± 0.09
8,K20Q,-0.278 ± 0.086
9,K20N,-0.105 ± 0.11
10,K20G,-0.188 ± 0.06
11,K20D,-0.062 ± 0.1
12,K20I,-0.019 ± 0.1
13,K20H,0.021 ± 0.1
14,K20S,-0.2 ± 0.059
15,K20R,-0.234 ± 0.062
16,K20W,-0.737 ± 0.13
17,K20F,-0.226 ± 0.11
18,K20T,-0.14 ± 0.073
19,K20M,-0.118 ± 0.12
20,K20A,-0.139 ± 0.064
21,K20V,-0.123 ± 0.062
22,K20L,-0.618 ± 0.089
23,K20E,-0.085 ± 0.1
